According to PMC8390535:

Target: sfGFP-POX10 (superfolder green fluorescent protein POX10 fusion protein)
Assay: SPR

- Kd: 74 nM
Substance: PXDN-con4 (human recombinant peroxidasin consisting of the four immunoglobulin domains and the peroxidase domain) (domain or fragment)
